Reference: US20260201064A1 (ISU ABXIS, published 2026)

Biological target: T1, recombinant human ASM protein (human, UniProt P17405 47-630)
T1 construct: Recombinant human ASM in solution; also called acid sphingomyelinase (ASM) protein
T1 sequence: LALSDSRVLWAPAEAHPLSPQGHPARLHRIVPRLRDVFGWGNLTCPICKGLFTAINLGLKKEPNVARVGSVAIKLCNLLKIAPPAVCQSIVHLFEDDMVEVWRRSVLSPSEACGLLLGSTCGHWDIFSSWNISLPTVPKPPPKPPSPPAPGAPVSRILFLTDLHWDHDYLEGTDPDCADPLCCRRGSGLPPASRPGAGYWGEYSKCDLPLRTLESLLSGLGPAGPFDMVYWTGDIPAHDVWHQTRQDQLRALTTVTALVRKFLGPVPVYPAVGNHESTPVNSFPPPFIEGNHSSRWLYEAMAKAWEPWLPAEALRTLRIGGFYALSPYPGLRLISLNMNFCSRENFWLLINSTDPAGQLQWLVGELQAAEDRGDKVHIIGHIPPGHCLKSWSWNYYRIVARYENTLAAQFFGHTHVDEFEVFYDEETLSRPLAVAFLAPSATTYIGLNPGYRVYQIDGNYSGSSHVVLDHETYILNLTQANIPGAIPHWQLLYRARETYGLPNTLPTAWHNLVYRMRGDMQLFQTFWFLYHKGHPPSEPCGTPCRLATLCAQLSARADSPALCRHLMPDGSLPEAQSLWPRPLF
Assay: BLI (Octet), antibody on AHC sensor
Experimental: The binding affinity, to the ASM protein, of the produced antibodies specifically binding to the ASM protein and the interactive dynamics therebetween were measured using an Octet® QK384 system (Pall Life Sciences).
First, an antibody specifically binding to the ASM protein produced in Example 1 was captured using an anti-human IgG Fc capture (AHC) biosensor, and 1.25, 2.5, 5, 10, or 20 nM recombinant human ASM protein solution was added thereto. […] The association constant (Kₐ), dissociation constant (Kd), and equilibrium dissociation constant (KD) for each antibody were determined using Octet® analysis software (Pall Life® Sciences). As a result, the binding affinities, to the human ASM protein, of the antibodies with mutations in the heavy chain CDR regions of the antibody #9104 as depicted in Table 1 are shown in Table 5, and the binding affinities, to the human ASM protein, of the antibodies with mutations of the light chain CDR regions in the antibody #9104 as depicted in Table 2 are shown in Table 6.
After the small-scale expression in the ExpiCHO cell line as described above, the binding affinity to the human ASM protein was investigated as described in Experimental Example 1. Specifically, the antibody produced by a combination of #9104v-H33 heavy chain variable region and #9104v-L23 light chain variable region was not expressed and thus excluded in the analysis of binding affinity to ASM protein.

B1: #9104a-B7 (antibody, human IgG4 S228P, lambda, V domains shown)
VH: EVQLLESGGGLVQPGGSLRLSCAASGFTFSNYYMSWVRQAPGKGLEWVSGVYYGSGTPYYADSVKGRFTISRDNSKNTLYLQMNSLRAEDTAVYYCARDTPGFDYWGQGTLVTVSS
VL: QSVLTQPPSASGTPGQRVTISCTGSSSNIGNNAVNWYQQLPGTAPKLLIYYDMFRPNGVPDRFSGSKSGTSASLAISGLRSEDEADYYCGAWDYSLSAYVFGGGTKLTVLG
notes: VH of #9104v-H31 with VL of #9104v-L21; full-length IgG, lambda
Kd: 163 pM | koff: 4.07e-05 s⁻¹ | kon: 250000 M⁻¹ s⁻¹

B2: #9104a-C4 (antibody, human IgG4 S228P, lambda, V domains shown)
VH: EVQLLESGGGLVQPGGSLRLSCAASGFTFSNYYMSWVRRAPGKGLEWVSGIYYGSGTPYYAASVKGRFTISRDNSKNTLYLQMNSLRAEDTAVYYCARDTPGFDYWGQGTLVTVSS
VL: QSVLTQPPSASGTPGQRVTISCTGSSSNIGNNAVNWYQQLPGTAPKLLIYYDQFRPSGVPDRFSGSKSGTSASLAISGLRSEDEADYYCGAWDYSLSAYVFGGGTKLTVLG
notes: VH of #9104v-H17 with VL of #9104v-L23; full-length IgG, lambda
Kd: 203 pM | koff: 6.42e-05 s⁻¹ | kon: 317000 M⁻¹ s⁻¹

B3: #9104a-C5 (antibody, human IgG4 S228P, lambda, V domains shown)
VH: EVQLLESGGGLVQPGGSLRLSCAASGFTFSNYYMSWVRQAPGKGLEWVSGIYYGSGVPYYADSVKGRFTISRDNSKNTLYLQMNSLRAEDTAVYYCARDTPGFDYWGQGTLVTVSS
VL: QSVLTQPPSASGTPGQRVTISCTGSSSNIGNNAVNWYQQLPGTAPKLLIYYDQFRPSGVPDRFSGSKSGTSASLAISGLRSEDEADYYCGAWDYSLSAYVFGGGTKLTVLG
notes: VH of #9104v-H19 with VL of #9104v-L23; full-length IgG, lambda
Kd: 192 pM | koff: 6.46e-05 s⁻¹ | kon: 337000 M⁻¹ s⁻¹

B4: #9104a-D1 (antibody, human IgG4 S228P, lambda, V domains shown)
VH: EVQLLESGGGLVQPGGSLRLSCAASGFTFSNYYMSWVRQAPGKGLEWVSGIYYGNGIPYYADSVKDRFTISRDNSKNTLYLQMNSLRAEDTAVYYCARDTPGFDYWGQGTLVTVSS
VL: QSVLTQPPSASGTPGQRVTISCTGSSSNIGNNAVNWYQQLPGTAPKLLIYYDYFSHSGVPDRFSGSKSGTSASLAISGLRSEDEADYYCGAWDYSLSAYVFGGGTKLTVLG
notes: VH of #9104v-H10 with VL of #9104v-L64; full-length IgG, lambda
Kd: 94.8 pM | koff: 2.79e-05 s⁻¹ | kon: 294000 M⁻¹ s⁻¹

B5: #9104a-C6 (antibody, human IgG4 S228P, lambda, V domains shown)
VH: EVQLLESGGGLVQPGGSLRLSCAASGFTFSNYYMSWVRQAPGKGLEWVSGTYYDSGYVYYADSVKGRFTISRDNSKNTLYLQMNSLRAEDTAVYYCARDTPGFDYWGQGTLVTVSS
VL: QSVLTQPPSASGTPGQRVTISCTGSSSNIGNNAVNWYQQLPGTAPKLLIYYDQFRPSGVPDRFSGSKSGTSASLAISGLRSEDEADYYCGAWDYSLSAYVFGGGTKLTVLG
notes: VH of #9104v-H27 with VL of #9104v-L23; full-length IgG, lambda
Kd: 928 pM | koff: 0.000109 s⁻¹ | kon: 117000 M⁻¹ s⁻¹

B6: #9104a-D3 (antibody, human IgG4 S228P, lambda, V domains shown)
VH: EVQLLESGGGLVQPGGSLRLSCAASGFTFSNYYMSWVRQAPGKGLEWVSGIYYGSGIPYYANSVKGRFTISRDNSKNTLYLQMNSLRAEDTAVYYCARDTPGFDYWGQGTLVTVSS
VL: QSVLTQPPSASGTPGQRVTISCTGSSSNIGNNAVNWYQQLPGTAPKLLIYYDYFSHSGVPDRFSGSKSGTSASLAISGLRSEDEADYYCGAWDYSLSAYVFGGGTKLTVLG
notes: VH of #9104v-H13 with VL of #9104v-L64; full-length IgG, lambda
Kd: 229 pM | koff: 6.73e-05 s⁻¹ | kon: 294000 M⁻¹ s⁻¹

B7: #9104a-D5 (antibody, human IgG4 S228P, lambda, V domains shown)
VH: EVQLLESGGGLVQPGGSLRLSCAASGFTFSNYYMSWVRQAPGKGLEWVSGIYYGSGVPYYADSVKGRFTISRDNSKNTLYLQMNSLRAEDTAVYYCARDTPGFDYWGQGTLVTVSS
VL: QSVLTQPPSASGTPGQRVTISCTGSSSNIGNNAVNWYQQLPGTAPKLLIYYDYFSHSGVPDRFSGSKSGTSASLAISGLRSEDEADYYCGAWDYSLSAYVFGGGTKLTVLG
notes: VH of #9104v-H19 with VL of #9104v-L64; full-length IgG, lambda
Kd: 130 pM | koff: 3.39e-05 s⁻¹ | kon: 261000 M⁻¹ s⁻¹

B8: #9104a-D4 (antibody, human IgG4 S228P, lambda, V domains shown)
VH: EVQLLESGGGLVQPGGSLRLSCAASGFTFSNYYMSWVRRAPGKGLEWVSGIYYGSGTPYYAASVKGRFTISRDNSKNTLYLQMNSLRAEDTAVYYCARDTPGFDYWGQGTLVTVSS
VL: QSVLTQPPSASGTPGQRVTISCTGSSSNIGNNAVNWYQQLPGTAPKLLIYYDYFSHSGVPDRFSGSKSGTSASLAISGLRSEDEADYYCGAWDYSLSAYVFGGGTKLTVLG
notes: VH of #9104v-H17 with VL of #9104v-L64; full-length IgG, lambda
Kd: 206 pM | koff: 5.09e-05 s⁻¹ | kon: 248000 M⁻¹ s⁻¹

B9: #9104a-C2 (antibody, human IgG4 S228P, lambda, V domains shown)
VH: EVQLLESGGGLVQPGGSLRLSCAASGFTFSNYYMSWVRQAPGKGLEWVSGIYYGSGIPYYADSVKERFTISRDNSKNTLYLQMNSLRAEDTAVYYCARDTPGFDYWGQGTLVTVSS
VL: QSVLTQPPSASGTPGQRVTISCTGSSSNIGNNAVNWYQQLPGTAPKLLIYYDQFRPSGVPDRFSGSKSGTSASLAISGLRSEDEADYYCGAWDYSLSAYVFGGGTKLTVLG
notes: VH of #9104v-H11 with VL of #9104v-L23; full-length IgG, lambda
Kd: 172 pM | koff: 5.28e-05 s⁻¹ | kon: 306000 M⁻¹ s⁻¹

B10: #9104a-C3 (antibody, human IgG4 S228P, lambda, V domains shown)
VH: EVQLLESGGGLVQPGGSLRLSCAASGFTFSNYYMSWVRQAPGKGLEWVSGIYYGSGIPYYANSVKGRFTISRDNSKNTLYLQMNSLRAEDTAVYYCARDTPGFDYWGQGTLVTVSS
VL: QSVLTQPPSASGTPGQRVTISCTGSSSNIGNNAVNWYQQLPGTAPKLLIYYDQFRPSGVPDRFSGSKSGTSASLAISGLRSEDEADYYCGAWDYSLSAYVFGGGTKLTVLG
notes: VH of #9104v-H13 with VL of #9104v-L23; full-length IgG, lambda
Kd: 176 pM | koff: 4.55e-05 s⁻¹ | kon: 259000 M⁻¹ s⁻¹

B11: #9104a-B8 (antibody, human IgG4 S228P, lambda, V domains shown)
VH: EVQLLESGGGLVQPGGSLRLSCAASGFTFSNYYMSWVRQAPGKGLEWVSGVYYPSGNPYYADSVKGRFTISRDNSKNTLYLQMNSLRAEDTAVYYCARDTPGFDYWGQGTLVTVSS
VL: QSVLTQPPSASGTPGQRVTISCTGSSSNIGNNAVNWYQQLPGTAPKLLIYYDMFRPNGVPDRFSGSKSGTSASLAISGLRSEDEADYYCGAWDYSLSAYVFGGGTKLTVLG
notes: VH of #9104v-H33 with VL of #9104v-L21; full-length IgG, lambda
Kd: 280 pM | koff: 6.44e-05 s⁻¹ | kon: 230000 M⁻¹ s⁻¹

B12: #9104a-C7 (antibody, human IgG4 S228P, lambda, V domains shown)
VH: EVQLLESGGGLVQPGGSLRLSCAASGFTFSNYYMSWVRQAPGKGLEWVSGVYYGSGTPYYADSVKGRFTISRDNSKNTLYLQMNSLRAEDTAVYYCARDTPGFDYWGQGTLVTVSS
VL: QSVLTQPPSASGTPGQRVTISCTGSSSNIGNNAVNWYQQLPGTAPKLLIYYDQFRPSGVPDRFSGSKSGTSASLAISGLRSEDEADYYCGAWDYSLSAYVFGGGTKLTVLG
notes: VH of #9104v-H31 with VL of #9104v-L23; full-length IgG, lambda
Kd: 152 pM | koff: 4.56e-05 s⁻¹ | kon: 300000 M⁻¹ s⁻¹

B13: #9104a-C1 (antibody, human IgG4 S228P, lambda, V domains shown)
VH: EVQLLESGGGLVQPGGSLRLSCAASGFTFSNYYMSWVRQAPGKGLEWVSGIYYGNGIPYYADSVKDRFTISRDNSKNTLYLQMNSLRAEDTAVYYCARDTPGFDYWGQGTLVTVSS
VL: QSVLTQPPSASGTPGQRVTISCTGSSSNIGNNAVNWYQQLPGTAPKLLIYYDQFRPSGVPDRFSGSKSGTSASLAISGLRSEDEADYYCGAWDYSLSAYVFGGGTKLTVLG
notes: VH of #9104v-H10 with VL of #9104v-L23; full-length IgG, lambda
Kd: 139 pM | koff: 3.76e-05 s⁻¹ | kon: 271000 M⁻¹ s⁻¹

B14: #9104a-D2 (antibody, human IgG4 S228P, lambda, V domains shown)
VH: EVQLLESGGGLVQPGGSLRLSCAASGFTFSNYYMSWVRQAPGKGLEWVSGIYYGSGIPYYADSVKERFTISRDNSKNTLYLQMNSLRAEDTAVYYCARDTPGFDYWGQGTLVTVSS
VL: QSVLTQPPSASGTPGQRVTISCTGSSSNIGNNAVNWYQQLPGTAPKLLIYYDYFSHSGVPDRFSGSKSGTSASLAISGLRSEDEADYYCGAWDYSLSAYVFGGGTKLTVLG
notes: VH of #9104v-H11 with VL of #9104v-L64; full-length IgG, lambda
Kd: 149 pM | koff: 5.22e-05 s⁻¹ | kon: 351000 M⁻¹ s⁻¹
